From patent US20250075002A1 come the findings set out here.

Experiment [1] concerns the target Cyno MUC1 (full length), on cells (cyno). Put plainly: flow cytometry on HEK293/cyno MUC1 cells. (In general: Flow cytometry measures light scatter and fluorescence of single cells or particles in a stream.)
The target in experiment [2] is MUC1 as expressed on normal activated human T cells (human) (UniProt P15941). Put plainly: FACS, PHA-L-activated human PBMC, live αβTCR+ gate, Donor 190980805C; antibody 10 µg/mL by paragraph 182.
For experiment [3] the target is unchanged. Put plainly: FACS, PHA-L-activated human PBMC, live αβTCR+ gate, Donor 191180405C; antibody 10 µg/mL by paragraph 182.

Sequence of Cyno MUC1 (full length), on cells (cyno) (chain, as listed by the source limits assumed, form in doubt): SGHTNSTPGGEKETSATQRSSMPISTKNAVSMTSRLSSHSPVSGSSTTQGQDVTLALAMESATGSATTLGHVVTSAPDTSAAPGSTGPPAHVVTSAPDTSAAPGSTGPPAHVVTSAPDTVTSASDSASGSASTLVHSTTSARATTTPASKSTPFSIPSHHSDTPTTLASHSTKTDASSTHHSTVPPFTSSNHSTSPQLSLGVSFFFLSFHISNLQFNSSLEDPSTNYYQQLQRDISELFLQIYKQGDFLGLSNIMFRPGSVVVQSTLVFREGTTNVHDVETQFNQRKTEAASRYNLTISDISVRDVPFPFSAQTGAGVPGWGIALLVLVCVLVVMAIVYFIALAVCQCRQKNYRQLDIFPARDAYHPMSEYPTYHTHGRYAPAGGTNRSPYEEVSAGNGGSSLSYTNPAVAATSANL
Sequence of MUC1 as expressed on normal activated human T cells (human) (P15941 24-1255): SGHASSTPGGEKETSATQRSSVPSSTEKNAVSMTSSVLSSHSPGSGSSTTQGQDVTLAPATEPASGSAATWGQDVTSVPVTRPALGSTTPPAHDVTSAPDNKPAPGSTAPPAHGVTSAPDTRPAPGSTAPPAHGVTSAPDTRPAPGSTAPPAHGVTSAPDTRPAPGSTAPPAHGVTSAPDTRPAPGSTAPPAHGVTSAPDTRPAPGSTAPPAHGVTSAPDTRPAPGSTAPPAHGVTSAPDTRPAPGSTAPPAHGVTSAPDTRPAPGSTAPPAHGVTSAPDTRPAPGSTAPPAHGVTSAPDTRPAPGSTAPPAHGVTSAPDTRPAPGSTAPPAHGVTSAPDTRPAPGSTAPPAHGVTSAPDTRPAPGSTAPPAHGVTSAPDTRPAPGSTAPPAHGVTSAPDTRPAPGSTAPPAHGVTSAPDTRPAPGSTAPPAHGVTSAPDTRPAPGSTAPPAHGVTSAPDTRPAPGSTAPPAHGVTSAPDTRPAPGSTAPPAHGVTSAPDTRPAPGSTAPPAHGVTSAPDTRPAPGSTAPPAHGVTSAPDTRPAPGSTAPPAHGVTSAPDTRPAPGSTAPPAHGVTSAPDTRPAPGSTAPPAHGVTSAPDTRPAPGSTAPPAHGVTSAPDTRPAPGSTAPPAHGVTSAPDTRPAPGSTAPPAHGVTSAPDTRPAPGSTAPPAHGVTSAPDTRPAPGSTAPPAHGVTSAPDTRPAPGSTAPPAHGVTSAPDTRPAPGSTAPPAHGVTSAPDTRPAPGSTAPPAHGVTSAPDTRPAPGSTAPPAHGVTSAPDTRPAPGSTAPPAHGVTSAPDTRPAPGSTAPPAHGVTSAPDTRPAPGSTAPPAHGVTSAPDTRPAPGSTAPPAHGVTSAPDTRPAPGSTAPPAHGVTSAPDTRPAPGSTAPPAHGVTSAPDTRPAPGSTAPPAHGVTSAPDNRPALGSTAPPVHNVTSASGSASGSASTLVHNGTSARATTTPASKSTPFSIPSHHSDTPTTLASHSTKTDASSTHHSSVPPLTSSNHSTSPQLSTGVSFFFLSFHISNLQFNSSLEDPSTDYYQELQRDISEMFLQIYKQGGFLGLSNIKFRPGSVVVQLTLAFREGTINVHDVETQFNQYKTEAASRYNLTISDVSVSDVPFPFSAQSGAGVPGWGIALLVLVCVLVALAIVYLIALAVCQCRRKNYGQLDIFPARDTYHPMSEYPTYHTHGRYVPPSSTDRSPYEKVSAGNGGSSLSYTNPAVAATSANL

B1: chBG219P (antibody, V domains shown)
VH: EVQLVESGGGLVKPGGSLKLSCAASGFTFNDYIMSWVRQTPEKRLEWVATVSSGGDNTYYPDSVKGRFTISRDNAKNNLYLQMSSLRSEDTALYYCTRYGGLGAMDYWGQGTSVTVSS
VL: DIVMTQSPASLSASVGETVTITCRASGNIHNYLTWYQQKQGKSPQLLVYNAKTLADGVPSRFSGSGSGPQYSLKINSLQPEDFGSYYCQHFWSVPYTFGGGTRLEIK
Take B1: the concentration for a half-maximal effect (EC50) – broadly, the midpoint of the concentration-response curve – in experiment [1] was found to be 12.7 nM. That is a double-digit nanomolar value.

B2: chBG138P (antibody, V domains shown)
VH: QVQLLQSGAELARPGASVKMSCKASGYTFTTYTMHWIKQRPGQGLEWIGYINPGSDYTHYNQKFKDKATLTADKSSSTAYMHLYSLTSEDSAVYYCARQGNYAAYYFDYWGQGTTLTVSS
VL: DIQMTQSPASLSASVGETVTITCRASGNIHNFLVWYQQKQGKSPQLLVYNAKTLTDGVPSRFSGSGSGTQYSLKIKSLQPEDFGTYYCQNFWNVPFTFGSGTKLEIK
On to B2, for which, in experiment [1], the EC50 turned out to be 7.55 nM.

B3: chBG346P (antibody, V domains shown)
VH: EVQLQQSGAELVKPGASVKISCKASGYTFTNYWMNWVRQRPGQGLEWIGEIDPSDSYTNNNQKFKDKATLTVDKSSSTAYMQLSSLTSEDSAVYYCARGRRTGFAYWGQGTLVTVSS
VL: DIQMTQSPASLSVSVGETVTITCRASENIYSNLAWYQKKQGKSPQLLVYAATNLADGVPSRFSGSGSGTQYSLKINSLQSEDFGNYYCQHFWGTPYTFGGGTKLEIK
With B3, in experiment [1], the half-maximal effective concentration (EC50) came out at 41.8 nM.

B4: huBG138P-Hz4 (antibody, from another filing, V domains shown)
VH: QVQLVQSGAEVKKPGASVKVSCKASGYTFTTYTMHWVRQAPGQGLEWMGYINPGSDYTHYNQKFKDRVTITADKSASTAYMELSSLRSEDTAVYYCARQGNYAAYYFDYWGQGTLVTVSS
VL: DIQMTQSPSSLSASVGDRVTITCRASGNIHNFLVWYQQKPGKSPKLLIYNAKTLTSGVPSRFSGSGSGTQYTLTISSLQPEDVATYYCQNFWNVPFTFGQGTKLEIK
On to B4, for which the percent of αβTCR+ cells in the MUC1-positive gate (dashed box) turned out to be 2.4% in experiment [2] and 2.3% in experiment [3].
